Results published in the DeepSol protein solubility set.

Test: soluble on expression in E. coli; label from the status in PepcDB or PDB records

| Sequence | soluble on expression in E. coli |
| --- | --- |
| MGSDKIHHHHHHMPRDLPPLNALRAFTAAAKRLSFTQAAEDLGVTQAAVSHQIRGLEDWLGVALFRRRNKQVVMTEAGQVYALAIGQALDEIAEATAALVRNDPRAGMLTISTMPSFAIKWLVQRLGGFINANPDIEVRLHTTRELVNFATEGIDVAIRMTREVGDDLHADLLLEEELFPVCSPALMRGIRPLRQPSDLSQHLLLQDVGISWVSWLDPAGALDVRPARGPGYLDSALAIQACIESQGVMLGRTVMVEDDLKAGRLVEPFTLRVPSPMKYWLVCPPGHLARPGVRAFREWILAEASKWTKARSSAHGVED | not soluble |
| MGSDKIHHHHHHMKRNESKYKQVVNHVIDGINNGSYKKGDWILSINEFRKNYNLSRDTVFAGLSELKSKGIIDSTPGVGYYIATTRIAQKLNIFLLFNEFNEFKEDLYNSFISSIRKTANVDLYFHNYNRKVFETLINEANYKYTTYILMPGKFTNIAPLLESLSGRVFLLDHFHPELAGKYSSVAQNFEKDTYEALVYGLPHLKKYDHIIMVQKEEKEPIERYNGLCAFCEEYHFTHEYTDSVRNREIRQGETFMVVNDRDLVDLLKQAQLQNFAPGKDFGIISYNDTPLKEILAGGITTLSTDFKQMGQTMASLITQKEIKTIENPWKLDIRNSL | not soluble |
| MIDQLQVGPNPLVGLLDDVHMLEVQRDSGVANILNSPEIKKRHYNATRKRVNRRDSTIVEPEAKSRKMDENWTGVGTESESTDCVETTETRFTWFKAQTKHPGLAKSLQSEVTKVGLSIVDLQHCTLPCKSINYNFHFYSFKGLSREDSKKFEEMIDQNFVNNFCAENLLNKEDKNFFYYDLGYKQVVSLSMLATYFKIKNEQPLLHPLKMLLNKQLLKKAFEDADTHVELKKYLSKNGYSKLVQWMEEMTQ | not soluble |
| MALAVRKQLLYELIDRLDETDHQTAYDFLMYLLDRSRKERMVWERIDETDEEEALTEEERQQLQSDEGYITGGEAKREFGLQVDLP | not soluble |
| MTIWEISEKADYIAQRHRRLQDQWHIYCNSLVQGITLSKARLHHAMSCAPDKELCFVLFEHFRIYVTLADGFNSHTIEYYVETKDGEDKQRIAQAQLSIDGMIDGKVNIRDREQVLEHYLEKIAGVYDSLYTAIENNVPVNLSQLVKGQSPAA | soluble |
| MAHHHHHHMEPSVKESVSRIPLLKTKAGPRDGDKWTARLKEEYASLITYVEHNKASDSHWFHLESNPQGTRWYGTCWTYYKNEKYEFEMNFDIPVTYPQAPPEIALPELEGKTVKMYRGGKICMTTHFFPLWARNVPYFGISHVLALGLGPWLSIEVPAIVEEGYLKPASAATVPTTGE | soluble |
| MVQQKIANLLQGDFRYQIQYNWVSLENISPNIQLAVISSEDQRFLEHLGFDFEAIQRAIRYNEKSNKGIRGASTISQQTAKNLMLWHGQNWLRKGLEVPATMLLELTWSKKRILEVYLNIAEFGNGIFGVEAASRYYFKKSAKNLSQNEAALLAAVLPNPIIYKVNKPSLLVRKKQTWILRQMGNLGTEYLSHL | not soluble |
| MGSDKIHHHHHHMSWKLSIIRLLNKSLVPNQQRALVVFTVLLLCACGKAKIPFSPITVSQTPVTTAQFTDDIDTVSTLEAKEEVHLAAQASGRIIELKIDQGDQVQPGQMLVVLDQAQIRAELADFKAQEQKNKLNWQRYEFLVPQGAASALDRDEYKAQYIASREKVKATEATLAYSNLRSPISGIVADVDVKVGDVIRSGDPFTKLIRNNRLFARVEVPATFSDRIKIGLPVFLNKTGSSDVMATGEINSVGPTVNRTTQGLLVKAAFENANGSLRNGQRLRTRVQLDTREELSVPFAAVTQTSGQSFVYRVGSFQELEDFSGNISLDKLRKLPPSTRFALQTPVTLGKLQKQRYAVTKGLKLGEQVITTNLLKLRHGMPISVKN | not soluble |
| AAVEDNHLLIKAVQNEDVDLVQQLLEGGANVNFQEEEGGWTPLHNAVQMSREDIVELLLRHGADPVLRKKNGATPFLLAAIAGSVKLLKLFLSKGADVNECDFYGFTAFMEAAVYGKVKALKFLYKRGANVNLRRKTKEDQERLRKGGATALMDAAEKGHVEVLKILLDEMGADVNACDNMGRNALIHALLSSDDSDVEAITHLLLDHGADVNVRGERGKTPLILAVEKKHLGLVQRLLEQEHIEINDTDSDGKTALLLAVELKLKKIAELLCKRGASTDCGDLV | soluble |
| MRPISNLNTSAATYIPPQQLPSSCLETLTLLVQMNNYIKRDADYSTGMAVAPLVPEEVHLLAAAMTTELHRHQFQPVVSANDLQLPEPFTFDVAGFTITFTKTQEHDNTGNLMKIAVSKSGVCTSTNITLELFHSIVTTLMSRSQYGTFDLWSVRPILTDESQNRVHEAARYSPAQQYGREETHFTNNGMREFGNMSPLAWRNDVELQQSCNTSNIPPNAANDDINNTRQTIEDQPEADEPQQYVKLTVDDMRKWAAMDQQARNALQGVSGWCTRNHFNIKNARNYLTDHGLNYAGQVKVNRPHEYAKFTLEHIRQWAALNKHVRKPVGYLEKWCKERNLAPTTARNYLKNDGLTALGELKLTGPQKWVTFTFGDIVQWANMTQEERNSAGGAEKWSKKRGFQWSTARSYLKSSGVTKQGARKLAWLKNSGNMSNPFYLAQPTSRRT | not soluble |
| VNSVQIKNATAIVTGASSGIGLAFASLLAQKGYNLLLIARNINKLNDLAKTLSTQYDTQCNVLSIDLSEENASKKVLEYIITNNLNISVLINNAGFSGNYKFLEADWSQLSKELNVMSIAVTELCYLIAPLMEKNSWGRIINVSSGAAYLPPTQSLLYTGLKSYVLNFSQSLDMELKPKGINVTALCPGFTRSEFHNTMGTNKQVSKVPNFLWQA | not soluble |
| MGGWIRNIGRYLSYLVDDTFEEYAYDVVDGIAKARTQEELLEGVYKALRLAPKLKKKAESKGCPPPRIPSPEDIEALEEKVEQLSNPKDLRKLAVSLALWAFASWNNCPKKGKGTEGGVELEHHHHHH | soluble |
| MSLAEYKHILVGVDGSRQAKRALDKAIAVALRNQAELIIVTIMSGGDYVGLGNNTQVGFGYVDQQVMDESRQALEALVDQYRQKAQEAGVERVVTSVFYGHAKVDLAKSLPKEYQADLIMLGATGVNVVERMLLGSTASYVVANAVCDVLVVRTDLHNEGHHHHHH | soluble |
| GSHSMKYFYTSMSRPGRGQPRFIAVGYVDDTQFVRFDSDAASQRMEPRAPWVEQEGPEYWDRETRNMKTETQNAPVNLRTLLRYYNQSEAGSHTLQRMVGCDLGPDGRLLRGYEQYAYDGKDYIALNEDLRSWTAADVAAQNTQRKWEAADVAESMRAYLEGQCVEWLPRYLEKGKETLQRTDPPKTHVTHHPVSDHEATLRCWALGFYPAEITLTWQRDGEDQTQDTELVETRPAGDGTFQKWAAVVVPSGEEQRYTCHVQHEGLPKPHTLKWEPHH | soluble |
| MTLYVNLAELLGSRIENGFYRPGDRLPSVRALSVEHGVSLSTVQQAYRVLEDSGLAAPKPKSGYFVSVSRHAPALPAVGRPAQRPVDISQWDQVLDLIRVAPREAVTQLGRGMPDVTSPTLKPLMRALGQLSRHQDMPGLYYDNIYGVLRLREQVARLMLDSGCNLTANDVIITNGCHEALSASVRAICSPGDIVAVDSPSFFGAMQTLKGVGMKALEIPTDPLTGISLEALELALEQWPIKVIQLTPNCNNPLGYVMPEARKRALLTLAQRFDVAIIEDDVYGDLAYNYPRPRTIKSFDEDGRVLLCSSFSKTLAPGLRIGWVAPGRYLERVLHMKYIGTGSTAPQPQLAIADFLEGGHYEPHVRRMRTQYQRSRDQMIDWVMRYFPEGTRASRPQGSFMLWVELAEDFDTLRLNRALLDKGVQIAVGSIFSASGKYRNCMRLNYAAKSSREIESAVRIVGETIAQLIAQSD | not soluble |
| MIKDPRPLNDKAFIQQCIRQLCEFLTENGYAHNVSMKSLQAPSVKDFLKIFTFLYGFLCPSYELPDTKFEEEVPRIFKDLGYPFALSKSSMYTVGAPHTWPHIVAALVWLIDCIKIHTAMKESSPLFDDGQPWGEETEDGIMHNKLFLDYTIKCYESFMSGADSFDEMNAELQSKLKDLFNVDAFKLESLEAKNRALNEQIARLEQERSTANKANAERLKRLQKSADLYKDRLGLEIRKIYGEKLQFIFTNIDPKNPESPFMFSLHLNEARDYEVSDSAPHLEGLAEFQENVRKTNNFSAFLANVRKAFTATVYQ | soluble |
| MGSDKIHHHHHHMTQSSLDPATVELTADQQQAAEAFSSWLDDANHGNPFVLSGFAGSGKTFLSMRLLRQVEDAGLCWTVVAPTHKAVGVLRQALDLEGLRPTWYPSTIHRLLRLKLKRQGDLELCESTEQTAQSLEQLGLVLIDESSMIDSTLLGLALQCAHPFRTRLVFVGDPAQLPPIGEAQSPVFSMHRACTATLQQVVRHQGPVLRLASRLRDGSLPCQSPPCFPLIEDELGRVGCMDQNNWLKRAQAALQSAAIQDNPDAARILCYTNRSLEQLVPHARRAIHGDMADQLPVLPGEVLIARKAVMAPASRSGAETGEEPDMVLGSNREVVVRDVTPERCDLAEFGLEGQSDWSVPVVDTLTAKVRAGELDLELRLQPPVGSEGRRLLDTTLQRLRVEAKAAGKSDGRSLWRRFFLLRDAFASLGPAAVLTVHRSQGSSFGEVFVAGDVFWPQDLSLRRQLVYVAVSRARTGVWLVGKTGAAAQSRWLDQLRSQSSDR | not soluble |
| MFCGRFANFIMRDVINFIKKYNNFVIIGHKDPDFDCIGSSLALSSFLSRIGKNSILLNEGPFIRKEIVPFKDKFLSEWPNIEISEYSVIILDCSILDRIGDEFIFYVKNMPTLVIDHHMSGEKLECEGYIDPFAPSTTFLIEKLIREFGHDLTKEEAWYILVGFCTDTGFFKFISRSDPEPFEMVARLVSKGISLKEVYSYIETTKSLKSIETLKLMLNSLESYWNGKVLFTFLSSSSSGKDGGVSGVNELFYMILSNVENNEILGILKEMEDGSIIVGLRSKDSFDVGKLAEDFGGGGHKNASGFRIKQGSLEIVKNRMLAYIKDNIYLLEHHHHHH | not soluble |
| SARKSNLPVLLVPFLLCQALVRCSSPLPLVVNTWPFKNATEAAWRALASGGSALDAVESGCAMCEREQCDGSVGFGGSPDELGETTLDAMIMDGTTMDVGAVGDLRRIKNAIGVARKVLEHTTHTLLVGESATTFAQSMGFINEDLSTSASQALHSDWLARNCQPNYWRNVIPDPSKYCGPYKPPGILKQDIPIHKETEDDRGHDTIGMVVIHKTGHIAAGTSTNGIKFKIHGRVGDSPIPGAGAYADDTAGAAAATGNGDILMRFLPSYQAVEYMRRGEDPTIACQKVISRIQKHFPEFFGAVICANVTGSYGAACNKLSTFTQFSFMVYNSEKNQPTEEKVDCI | soluble |
| MSNNIVPSSVLPAGENLLTVPDYAERIGQPVTRVFDQIGEHKLICVLDNGIKKIPEAFLSEKGTTNKFVPGVIALLSDGGYTDQEIFKFLFTEDESLPGRPIDAIHGHLAREVMRRAQAMGF | soluble |
| VHPLPADHGRSRCNRHPISPLSLIGNASATSGDMSSMTRIAKPLIKSAMAAGLVTASMSLSTAVAHAGPSPNWDAVAQCESGGNWAANTGNGKYGGLQFKPATWAAFGGVGNPAAASREQQIAVANRVLAEQGLDAWPTCGAASGLPIALWSKPAQGIKQIINEIIWAGIQASIPR | not soluble |
| MSVSRRDVLKFAAATPGVLGLGVVASSLRAAPASAGSLGTLLDYAAGVIPASQIRAAGAVGAIRYVSDRRPGGAWMLGKPIQLSEARDLSGNGLKIVSCYQYGKGSTADWLGGASAGVQHARRGSELHAAAGGPTSAPIYASIDDNPSYEQYKNQIVPYLRSWESVIGHQRTGVYANSKTIDWAVNDGLGSYFWQHNWGSPKGYTHPAAHLHQVEIDKRKVGGVGVDVNQILKPQFGQWA | not soluble |
